Test [1] concerns the target T1, VAMP7-syntaxin1-SNAP25 ternary SNARE complex, labeled with Oregon Green 488 (rat, UniProt Q9JHW5 1-190; P32851 1-265; P60881-2 1-206, C21S | C56V | C145S | S249C | K253C, Oregon Green 488 (maleimide) on cysteines; the labeled endogenous and mutant cysteines are shown in Figure 1A).
T1 construct: VAMP7, rat, residues 1-190; syntaxin1A, rat, residues 1-265; SNAP25A, rat; Removal of the His6 tag is told only for α-SNAP; also called VAMP7(1–190)-C21S/C56V-syntaxin1A(1–265)-C145S/S249C/K253C-SNAP25A; source: E. coli BL21(DE3), coexpressed, purified (Ni-NTA, Superdex 200); copies: + +
Description: other fluorescence titration; change in Oregon Green 488 fluorescence intensity of the labeled SNARE complex as a function of α-SNAP concentration; fit y = Fmax·x/(KD + x); three independent experiments. Particulars: both partners purified.

For test [2], the target named is T2, ^ΔNVAMP7-^ΔNsyntaxin1-SNAP25 core complex (rat, UniProt Q9JHW5 119-190; P32851 191-265; P60881-2 1-206, S249C | K253C).
T2 construct: VAMP7, rat, residues 119-190; syntaxin1A, rat, residues 191-265; the construct's printed name also holds C145S, which lies outside 191-265; SNAP25A, rat; also called ^ΔNSNARE complex; core of the VAMP7-syntaxin1-SNAP25 SNARE complex (without the N-terminal domains); source: E. coli, coexpressed, purified; copies: + +
T2 sequence (Q9JHW5 119-190, stated change not applied, chain 1 of 3): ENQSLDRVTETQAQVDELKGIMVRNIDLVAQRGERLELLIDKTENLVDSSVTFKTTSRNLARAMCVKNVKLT
T2 sequence (P32851 191-265 S249C/K253C, chain 2 of 3): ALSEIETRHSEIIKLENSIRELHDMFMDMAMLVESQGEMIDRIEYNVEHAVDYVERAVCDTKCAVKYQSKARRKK
T2 sequence (P60881 other isoform, or with tags, fused parts or gaps S249C | K253C | S249C | K253C | mutant, chain 3 of 3): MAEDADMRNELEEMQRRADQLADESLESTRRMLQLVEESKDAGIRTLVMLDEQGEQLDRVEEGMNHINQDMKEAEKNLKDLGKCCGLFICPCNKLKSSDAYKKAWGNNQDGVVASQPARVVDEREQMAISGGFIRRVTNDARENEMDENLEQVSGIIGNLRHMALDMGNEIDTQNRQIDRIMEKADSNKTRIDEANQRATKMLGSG
Description: SEC-MALS; 30 μM SNARE complex and 30 μM α-SNAP (1:1 mixture); WTC-030S5 column; 20 mM Tris-HCl (pH 8.0), 50 mM NaCl, 0.1 mM TCEP. The conditions noted are these: both partners purified.

T1 sequence (Q9JHW5 1-190 C21S/C56V, chain 1 of 3): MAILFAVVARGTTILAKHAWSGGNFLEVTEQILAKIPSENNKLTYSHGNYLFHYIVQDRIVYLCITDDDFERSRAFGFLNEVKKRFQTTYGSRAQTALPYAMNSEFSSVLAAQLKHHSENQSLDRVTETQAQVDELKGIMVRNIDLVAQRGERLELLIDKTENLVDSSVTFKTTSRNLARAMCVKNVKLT
T1 sequence (P32851 1-265 C145S/S249C/K253C, chain 2 of 3): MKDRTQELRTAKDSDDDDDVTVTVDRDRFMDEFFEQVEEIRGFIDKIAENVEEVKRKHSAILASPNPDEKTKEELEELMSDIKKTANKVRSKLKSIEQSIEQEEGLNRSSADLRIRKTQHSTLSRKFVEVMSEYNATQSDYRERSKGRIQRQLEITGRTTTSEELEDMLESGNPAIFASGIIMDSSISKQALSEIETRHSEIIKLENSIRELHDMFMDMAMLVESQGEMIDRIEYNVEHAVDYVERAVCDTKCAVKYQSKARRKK
T1 sequence (P60881 other isoform, or with tags, fused parts or gaps with the stated changes, chain 3 of 3): as the sequence (P60881 other isoform, or with tags, fused parts or gaps S249C | K253C | S249C | K253C | mutant, chain 3 of 3) above

B1: α-soluble NSF attachment protein (α-SNAP) (natural protein, rat, UniProt P54921 1-295, looked up)
chain: MDTSGKQAEAMALLAEAERKVKNSQSFFSGLFGGSSKIEEACEIYARAANMFKMAKNWSAAGNAFCQAAQLHLQLQSKHDAATCFVDAGNAFKKADPQEAINCLMRAIEIYTDMGRFTIAAKHHISIAEIYETELVDVEKAIAHYEQSADYYKGEESNSSANKCLLKVAGYAAQLEQYQKAIDIYEQVGTSAMDSPLLKYSAKDYFFKAALCHFCIDMLNAKLAVQKYEELFPAFSDSRECKLMKKLLEAHEEQNVDSYTESVKEYDSISRLDQWLTTMLLRIKKTIQGDEEDLR
notes: α-SNAP, rat; His6 tag removed with tobacco etch virus protease; source: E. coli BL21(DE3), purified (Ni-NTA, Superdex 200)
As for B1, in test [1], the binding result is “binds”. Besides, the “stoichiometry N” value in test [2] was 1 α-SNAP per SNARE complex.

The values above are taken from paper PMC3750193, “Disassembly of All SNARE Complexes by N-Ethylmaleimide-sensitive Factor (NSF) Is Initiated by a Conserved 1:1 Interaction between α-Soluble NSF Attachment Protein (SNAP) and SNARE Complex*^([image sbox.jpg])” (The Journal of Biological Chemistry, 2013).
